Assay results reported in publication PMC1894825, “Transcriptional Regulation of Multi-Drug Tolerance and Antibiotic-Induced Responses by the Histone-Like Protein Lsr2 in M. tuberculosis” (PLoS Pathogens, 2007).

Target: the molecule itself
Assay: cross-linking

B1: recombinant Lsr2 (M. tuberculosis, Rv3597c) (natural protein)
chain: not shown
notes: also called rLsr2; not shown: His6, N-terminal, kept
- binding result: binds
